In this assay the target is T1, HPV18E7蛋白 (in HeLa cells and HPV18-positive cervical adenocarcinoma tissue) (HPV18, UniProt P06788 1-105).
T1 construct: whole, on cells; Native intracellular protein in cells, tissue sections or total lysate; also called HeLa细胞总蛋白中的HPV18E7蛋白
T1 sequence: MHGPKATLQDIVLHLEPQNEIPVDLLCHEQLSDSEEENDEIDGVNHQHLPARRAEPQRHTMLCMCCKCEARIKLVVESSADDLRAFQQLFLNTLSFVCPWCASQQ
Put plainly: immunocytochemistry on HeLa cells (HPV18 positive), DAB.

B1: 抗HPV16E7蛋白单抗69E2 (antibody, mouse IgG2a, kappa, V domains shown)
VH: QVQLQQSGPEVVRPGVSVKISCKGSGYTFTDYAMHWVKQSHAKSLEWIGVISTYNGNTNYNQKFKGKATVTVDKSSSTAYMELARLTSEDSAIYYCARRGFGNSWFAYWGQGTLVTVSA
VL: ENVLTQSPAIMSASPGGKVTMTCSASSGVSYMHWYQQKSSTSPKLWIYDTSNLASGVPGRFSGSGSGNSYSLTISSMEAEDVATYYCFQGSGYPFTFGSGTKLEIRR
notes: Mouse IgG2a from hybridoma, purified from ascites; also called HPV16E7-69E2; CCTCC NO:C2019181
Regarding B1, the binding result is “no binding (tested: 7.8125ng/孔到1μg/孔)”.

(Values after patent CN111410689A (UNIV CHONGQING TECHNOLOGY, dated 2020).)
